Experimental data published in IntAct's records for PubMed 18682563.

B1: Inner tegument protein (Human herpesvirus 1 (strain 17) (HHV-1)), P10221 (parent)
chain: MADRGLPSEAPVVTTSPAGPPSDGPMQRLLASLAGLRQPPTPTAETANGADDPAFLATAKLRAAMAAFLLSGTAIAPADARDCWRPLLEHLCALHRAHGLPETALLAENLPGLLVHRLVVALPEAPDQAFREMEVIKDTILAVTGSDTSHALDSAGLRTAAALGPVRVRQCAVEWIDRWQTVTKSCLAMSPRTSIEALGETSLKMAPVPLGQPSANLTTPAYSLLFPAPFVQEGLRFLALVSNRVTLFSAHLQRIDDATLTPLTRALFTLALVDEYLTTPERGAVVPPPLLAQFQHTVREIDPAIMIPPLEANKMVRSREEVRVSTALSRVSPRSACAPPGTLMARVRTDVAVFDPDVPFLSSSALAVFQPAVSSLLQLGEQPSAGAQQRLLALLQQTWTLIQNTNSPSVVINTLIDAGFTPSHCTHYLSALEGFLAAGVPARTPTGHGLGEVQQLFGCIALAGSNVFGLAREYGYYANYVKTFRRVQGASEHTHGRLCEAVGLSGGVLSQTLARIMGPAVPTEHLASLRRALVGEFETAERRFSSGQPSLLRETALIWIDVYGQTHWDITPTTPATPLSALLPVGQPSHAPSVHLAAATQIRFPALEGIHPNVLADPGFVPYVLALVVGDALRATCSAAYLPRPVEFALRVLAWARDFGLGYLPTVEGHRTKLGALITLLEPAARGGLGPTMQMADNIEQLLRELYVISRGAVEQLRPLVQLQPPPPPEVGTSLLLISMYALAARGVLQDLAERADPLIRQLEDAIVLLRLHMRTLSAFFECRFESDGRRLYAVVGDTPDRLGPWPPEAMGDAVSQYCSMYHDAKRALVASLASLRSVITETTAHLGVCDELAAQVSHEDNVLAVVRREIHGFLSVVSGIHARASKLLSGDQVPGFCFMGQFLARWRRLSACYQAARAAAGPEPVAEFVQELHDTWKGLQTERAVVVAPLVSSADQRAAAIREVMAHAPEDAPPQSPAADRVVLTSRRDLGAWGDYSLGPLGQTTAVPDSVDLSRQGLAVTLSMDWLLMNELLRVTDGVFRASAFRPLAGPESPRDLEVRDAGNSLPAPMPMDAQKPEAYGHGPRQADREGAPHSNTPVEDDEMIPEDTVAPPTDLPLTSYQ
partner: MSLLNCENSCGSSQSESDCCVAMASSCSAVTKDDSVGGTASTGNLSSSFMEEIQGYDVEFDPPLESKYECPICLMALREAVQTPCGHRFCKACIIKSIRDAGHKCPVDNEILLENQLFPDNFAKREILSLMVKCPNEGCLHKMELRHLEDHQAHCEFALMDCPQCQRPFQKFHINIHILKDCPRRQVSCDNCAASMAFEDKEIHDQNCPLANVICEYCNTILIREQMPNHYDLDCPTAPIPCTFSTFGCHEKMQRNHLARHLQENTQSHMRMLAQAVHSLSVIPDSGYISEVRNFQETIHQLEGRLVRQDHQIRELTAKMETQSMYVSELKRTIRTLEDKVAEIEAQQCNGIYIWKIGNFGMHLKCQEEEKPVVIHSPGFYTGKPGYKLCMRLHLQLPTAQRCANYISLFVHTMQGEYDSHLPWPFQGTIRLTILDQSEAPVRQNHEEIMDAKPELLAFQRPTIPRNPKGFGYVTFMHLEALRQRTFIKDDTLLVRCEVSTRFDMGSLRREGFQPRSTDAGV

Variants of: B1
Details: with traf6_human TRAF6, Q9Y4K3

Variant	effect of a mutation on the interaction
E1101A	decreasing interaction strength
